Km, kcat and kcat/Km data for 2 proteins are collected here from publication PMC5770610, “Structure and function of urea amidolyase” (Bioscience Reports, 2018).

For orientation: Km means the substrate concentration at which the rate is half of its maximum. As a reminder, the kcat is the maximal rate divided by the concentration of active sites. For orientation: kcat/Km means the second-order rate constant that governs catalysis at low substrate concentration.

Substrate in this data set: NC(N)=O
Put plainly: glutamate dehydrogenase-coupled NADH assay of ammonium. The class given is biochemical, Kluyveromyces lactis. To be noted: overall UA activity, 5 mM ATP, 12.5 mM bicarbonate, 11 mM MgCl2, 20 mM KCl. From the text: glutamate dehydrogenase-coupled NADH assay of ammonium on KlUA

The mark [1] stands for this setting: pH 8.0, mutation in AH N domain active site.
Where [2] appears, read: pH 8.0, mutation in UC CT active site.

B1: KlUA (Kluyveromyces lactis NRRL Y-1140; S177A) (protein)
chain: MESTLGWSVQDWLSFHSKSTPTKSLELLENLLKSQKPAPEDPAWISLIPVEDLHHQWNILQSKSNKEELPLYGVPIAVKDNIDYKGLPTTAACPSYLYQPTRDSYVVELLRDAGAVVIGKTNLDQFATGLVGTRSPYGKTPCVFNDKYVSGGSSAGSASVVGRGIVPLSLGTDTAGAGRVPAALNNLIGLKPTKGAFSCRGVVPACKSLDCVSVFALNLSDAEIAFKVMNKPDLLEDEYSREFPKNPISQYPKDLTIAIPKEVPWFGETENPKLYTKAVASLKNTGAKIVVVDFEPLLELARCLYEGAWVAERYCATRDFLATNPPESSLDETVVNIIKGAVKFDAADAFKFEYKRQGILQKVNLLLKDIDVLCVPTCPLNPKLEEVAQEPVLVNSRQGTWTNFVNLADLAALAVPSGFRSDGLPNGITLIGKKFSDYALLDLAKRFFSVAFPNNSRTYGKFVDRRITVEDELDGPSKDTLNGVKLAVVGAHLKGLPLHWQLQKCNATYLSSPKTSNNYKLYALPKVGPVLKPGLRRVNDGTGSQIQLEVYSVPYDRFGDFIAMVPEPLGIGSVELESGEWVKSFICEEFGYTQQGTVDITKFGGFKPYIEHIQVTEAQKKKPFETVLIANRGEIAVRIMKTLKRMGIKSVAVYSDPDKYSQHVTDADFSVALHGRTAAETYLDIDKIINAAKKTGAQAIIPGYGFLSENADFSDRCSQENIVFVGPSGDAIRKLGLKHSAREIAERAKVPLVPGSGLIKDAKEAKEVAKKLEYPVMVKSTAGGGGIGLQKVDSEDDIERVFETVQHQGKSYFGDAGVFMERFVNNARHVEIQMMGDGFGKAIAIGERDCSLQRRNQKVIEETPAPNLPEATRAKMRAASERLGSLLKYKCAGTVEFIYDEQRDEFYFLEVNARLQVEHPITEMVTGLDLVEWMLRIAANDSPDFDNTKIEVSGASIEARLYAENPVKDFRPSPGQLTSVSFPSWARVDTWVKKGTNVSAEYDPTLAKIIVHGKDRNDAIMKLNQALNETAVYGCITNIDYLRSIASSKMFKEAKVATKVLDSFDYKPCAFEVLAPGANTSVQDYPGRTGYWRIGVPPSGPMDSYSFRLANRVVGNNSKSPALEITLNGPKLLFHTETVIAVSGGTVSCTLNDAQIAQNEPIEVKRGDILSVGKVTVGCRAYLSIRGGIDVPEYLGSRSTFAMGNMGGYNGRILKLGDVLFLNQPELSVSSLPAPDFEPQAAPKSLLPTLSTNKDWKIGVTCGPHGSIDLFKEEYIEQFFNDKWKVHYNSNRFGVRLIGPKPKWARSDGGEAGLHPSNAHDYVYSLGAINFTGDEPVIITCDGPSLGGFVCQAVVAEAELWKVGQLTPGDTIQFVPLSYGVARQLKESQDKSIDNFEEGSLLELSDDKILPKYENPILAVLPKKSDLSPKVTYRQAGDRYILVEYGELEFDLNICYRINRLIHQVERHQTVGIVEMSQGVRSVLIEFDGSKINQKALLKCLIAYESEIQFDKNWNVKSKIFKLPMAFEDSKTLDCVTRYRETIRSEAPWLPNNVDFIADVNDIDRNDVKNMLYSAKFMVLGLGDVFLGSPCAVPLDPRHRYLGTKYNPSRTYTARGVVGIGGMYMCIYNAEGSPGGYQLVGRTITAWDKLVIGDHPIDHPWLLTPFDQVEFYPVTEEELEVIIEDNDNGKFKIDVEESIFDHKEYLAWINENIDSIVAFQEAQGGEKADEFARLIQVANAELKKSGDDKPQDVEEYPDDAELLYSEYTGRFWKPVAAVGDHVEAGDGVIIIEAMKTEMVVGATKSGKVYKILHKNGDMVEAGDLVAVIV
notes: full-length enzyme, AH + UC domains; recombinant in E. coli BL21(DE3) Star (pET28A, nickel column); homodimer, monomer 202 kDa
B1: under setting [1], the Michaelis constant (Km) amounted to 203 ± 20 µM, the catalytic constant (kcat) came out at 0.785 ± 0.0133 s⁻¹ and the kcat/Km is 3870 ± 450 M⁻¹ s⁻¹.

B2: KlUA (Kluyveromyces lactis NRRL Y-1140; K1605A) (protein)
chain: MESTLGWSVQDWLSFHSKSTPTKSLELLENLLKSQKPAPEDPAWISLIPVEDLHHQWNILQSKSNKEELPLYGVPIAVKDNIDYKGLPTTAACPSYLYQPTRDSYVVELLRDAGAVVIGKTNLDQFATGLVGTRSPYGKTPCVFNDKYVSGGSSAGSASVVGRGIVPLSLGTDTAGSGRVPAALNNLIGLKPTKGAFSCRGVVPACKSLDCVSVFALNLSDAEIAFKVMNKPDLLEDEYSREFPKNPISQYPKDLTIAIPKEVPWFGETENPKLYTKAVASLKNTGAKIVVVDFEPLLELARCLYEGAWVAERYCATRDFLATNPPESSLDETVVNIIKGAVKFDAADAFKFEYKRQGILQKVNLLLKDIDVLCVPTCPLNPKLEEVAQEPVLVNSRQGTWTNFVNLADLAALAVPSGFRSDGLPNGITLIGKKFSDYALLDLAKRFFSVAFPNNSRTYGKFVDRRITVEDELDGPSKDTLNGVKLAVVGAHLKGLPLHWQLQKCNATYLSSPKTSNNYKLYALPKVGPVLKPGLRRVNDGTGSQIQLEVYSVPYDRFGDFIAMVPEPLGIGSVELESGEWVKSFICEEFGYTQQGTVDITKFGGFKPYIEHIQVTEAQKKKPFETVLIANRGEIAVRIMKTLKRMGIKSVAVYSDPDKYSQHVTDADFSVALHGRTAAETYLDIDKIINAAKKTGAQAIIPGYGFLSENADFSDRCSQENIVFVGPSGDAIRKLGLKHSAREIAERAKVPLVPGSGLIKDAKEAKEVAKKLEYPVMVKSTAGGGGIGLQKVDSEDDIERVFETVQHQGKSYFGDAGVFMERFVNNARHVEIQMMGDGFGKAIAIGERDCSLQRRNQKVIEETPAPNLPEATRAKMRAASERLGSLLKYKCAGTVEFIYDEQRDEFYFLEVNARLQVEHPITEMVTGLDLVEWMLRIAANDSPDFDNTKIEVSGASIEARLYAENPVKDFRPSPGQLTSVSFPSWARVDTWVKKGTNVSAEYDPTLAKIIVHGKDRNDAIMKLNQALNETAVYGCITNIDYLRSIASSKMFKEAKVATKVLDSFDYKPCAFEVLAPGANTSVQDYPGRTGYWRIGVPPSGPMDSYSFRLANRVVGNNSKSPALEITLNGPKLLFHTETVIAVSGGTVSCTLNDAQIAQNEPIEVKRGDILSVGKVTVGCRAYLSIRGGIDVPEYLGSRSTFAMGNMGGYNGRILKLGDVLFLNQPELSVSSLPAPDFEPQAAPKSLLPTLSTNKDWKIGVTCGPHGSIDLFKEEYIEQFFNDKWKVHYNSNRFGVRLIGPKPKWARSDGGEAGLHPSNAHDYVYSLGAINFTGDEPVIITCDGPSLGGFVCQAVVAEAELWKVGQLTPGDTIQFVPLSYGVARQLKESQDKSIDNFEEGSLLELSDDKILPKYENPILAVLPKKSDLSPKVTYRQAGDRYILVEYGELEFDLNICYRINRLIHQVERHQTVGIVEMSQGVRSVLIEFDGSKINQKALLKCLIAYESEIQFDKNWNVKSKIFKLPMAFEDSKTLDCVTRYRETIRSEAPWLPNNVDFIADVNDIDRNDVKNMLYSAKFMVLGLGDVFLGSPCAVPLDPRHRYLGTAYNPSRTYTARGVVGIGGMYMCIYNAEGSPGGYQLVGRTITAWDKLVIGDHPIDHPWLLTPFDQVEFYPVTEEELEVIIEDNDNGKFKIDVEESIFDHKEYLAWINENIDSIVAFQEAQGGEKADEFARLIQVANAELKKSGDDKPQDVEEYPDDAELLYSEYTGRFWKPVAAVGDHVEAGDGVIIIEAMKTEMVVGATKSGKVYKILHKNGDMVEAGDLVAVIV
notes: as for B1
In the case of B2, under setting [2], the Michaelis-Menten constant (Km) amounted to 299 ± 39 µM, the kcat stood at 1.33 ± 0.0333 s⁻¹ and the kcat/Km was 4450 ± 683 M⁻¹ s⁻¹.
